Experimental data as given in patent US20070071744A1 (published 2007).
Ends that are not written are not given here.

Legend:
Test in all cases: PepSpot peptide array
peptide 26 = molecular target: T1, peptide 26 (human)
T1 peptide: Ac-PPGVDLYRLEKLS
Method: (§1) The peptides were synthesized on a cellulose membrane in a stepwise manner resulting in a defined arrangement (peptide array) and are covalently bound to the cellulose membrane. Binding assays were performed directly on the peptide array. In general an antigen peptide array is incubated with blocking buffer for several hours to reduce non-specific binding of proteins or antibodies. It follows the incubation with a primary (antigen peptide-binding) antibody in blocking buffer and an incubation with a horseradish peroxidase (HRP)-labelled secondary antibody, which binds selectively the primary antibody. Alternatively a HRP-labelled primary antibody in blocking buffer can be used.
(§2) A short T(Tween)-TBS-buffer washing directly after the incubation of the antigen peptide array with the secondary protein or antibody or the HRP-labelled primary antibody followed by the first chemiluminescence experiment is made to get an first overview which antigen peptides do bind the primary antibody. Several buffer washing steps follow (T-TBS- and TBS-buffer) to reduce false positive binding (unspecific antibody binding to the cellulose membrane itself). After these washing steps the final chemiluminescence analysis is performed. The data were analysed with an imaging system showing the signal intensity (Light units, LU) as single measurements for each peptide. In order to evaluate non-specific binding of secondary antibodies, incubations using the secondary antibody have to be performed in the absence of the primary antibody as control incubation.

peptide 52 = molecular target: T2, peptide 52 (human)
T2 peptide: Ac-LELVATGVFAKPS
Method: as §1, §2

peptide 35 = molecular target: T3, peptide 35 (human)
T3 peptide: Ac-DQAVLFIPAMKRS
Method: as §1, §2

peptide 72 = molecular target: T4, peptide 72 (human)
T4 peptide: Ac-FALYKEGDPAPYK
Method: as §1, §2

peptide 14 = molecular target: T5, peptide 14 (human)
T5 peptide: Ac-KPSLQALPSSLVP
Method: as §1, §2

peptide 40 = molecular target: T6, peptide 40 (human)
T6 peptide: Ac-KRSLAGRYRCSYQ
Method: as §1, §2

peptide 92 = molecular target: T7, peptide 92 (human)
T7 peptide: Ac-FSSRDPYLWSAPS
Method: as §1, §2

peptide 112 = molecular target: T8, peptide 112 (human)
T8 peptide: Ac-FSEATAELTVSFT
Method: as §1, §2

peptide 59 = molecular target: T9, peptide 59 (human)
T9 peptide: Ac-SAQPGPAVSSGGD
Method: as §1, §2

peptide 2 = molecular target: T10, peptide 2 (human, cysteine pairing not given here)
T10 peptide: Ac-PSPTALFCLGLCL
Method: as §1, §2

peptide 71 = molecular target: T11, peptide 71 (human)
T11 peptide: Ac-DQFALYKEGDPAP
Method: as §1, §2

peptide 87 = molecular target: T12, peptide 87 (human)
T12 peptide: Ac-AHSGTYRCYSFSS
Method: as §1, §2

peptide 88 = molecular target: T13, peptide 88 (human)
T13 peptide: Ac-SGTYRCYSFSSRD
Method: as §1, §2

peptide 121 = molecular target: T14, peptide 121 (human)
T14 peptide: Ac-TETSRSITTSPKE
Method: as §1, §2

peptide 5 = molecular target: T15, peptide 5 (human, cysteine pairing not given here)
T15 peptide: Ac-FCLGLCLGRVPAQ
Method: as §1, §2

peptide 73 = molecular target: T16, peptide 73 (human)
T16 peptide: Ac-LYKEGDPAPYKNP
Method: as §1, §2

peptide 111 = molecular target: T17, peptide 111 (human)
T17 peptide: Ac-AEFSEATAELTVS
Method: as §1, §2

peptide 130 = molecular target: T18, peptide 130 (human)
T18 peptide: Ac-GPARQYYTKGNGG
Method: as §1, §2

peptide 84 = molecular target: T19, peptide 84 (human)
T19 peptide: Ac-IITVTAAHSGTYR
Method: as §1, §2

peptide 68 = molecular target: T20, peptide 68 (human)
T20 peptide: Ac-QTRYGFDQFALYK
Method: as §1, §2

peptide 85 = molecular target: T21, peptide 85 (human)
T21 peptide: Ac-TVTAAHSGTYRCY
Method: as §1, §2

peptide 44 = molecular target: T22, peptide 44 (human)
T22 peptide: Ac-RCSYQNGSLWSLP
Method: as §1, §2

peptide 115 = molecular target: T23, peptide 115 (human)
T23 peptide: Ac-ELTVSFTNKVFTT
Method: as §1, §2

peptide 43 = molecular target: T24, peptide 43 (human)
T24 peptide: Ac-RYRCSYQNGSLWS
Method: as §1, §2

peptide 21 = molecular target: T25, peptide 21 (human)
T25 peptide: Ac-EKPVTLRCQGPPG
Method: as §1, §2

peptide 129 = molecular target: T26, peptide 129 (human)
T26 peptide: Ac-PAGPARQYYTKGN
Method: as §1, §2

peptide 10 = molecular target: T27, peptide 10 (human)
T27 peptide: Ac-PAQSGPLPKPSLQ
Method: as §1, §2

peptide 66 = molecular target: T28, peptide 66 (human)
T28 peptide: Ac-TLQCQTRYGFDQF
Method: as §1, §2

peptide 69 = molecular target: T29, peptide 69 (human)
T29 peptide: Ac-RYGFDQFALYKEG
Method: as §1, §2

peptide 28 = molecular target: T30, peptide 28 (human)
T30 peptide: Ac-DLYRLEKLSSSRY
Method: as §1, §2

peptide 22 = molecular target: T31, peptide 22 (human)
T31 peptide: Ac-PVTLRCQGPPGVD
Method: as §1, §2

peptide 39 = molecular target: T32, peptide 39 (human)
T32 peptide: Ac-AMKRSLAGRYRCS
Method: as §1, §2

peptide 103 = molecular target: T33, peptide 103 (human)
T33 peptide: Ac-TSVTPSRLPTEPP
Method: as §1, §2

peptide 119 = molecular target: T34, peptide 119 (human)
T34 peptide: Ac-KVFTTETSRSITT
Method: as §1, §2

peptide 32 = molecular target: T35, peptide 32 (human)
T35 peptide: Ac-SSSRYQDQAVLFI
Method: as §1, §2

peptide 23 = molecular target: T36, peptide 23 (human)
T36 peptide: Ac-TLRCQGPPGVDLY
Method: as §1, §2

peptide 79 = molecular target: T37, peptide 79 (human)
T37 peptide: Ac-PERWYRASFPIIT
Method: as §1, §2

peptide 41 = molecular target: T38, peptide 41 (human)
T38 peptide: Ac-SLAGRYRCSYQNG
Method: as §1, §2

peptide 51 = molecular target: T39, peptide 51 (human)
T39 peptide: Ac-DQLELVATGVFAK
Method: as §1, §2

peptide 77 = molecular target: T40, peptide 77 (human)
T40 peptide: Ac-PYKNPERWYRASF
Method: as §1, §2

peptide 104 = molecular target: T41, peptide 104 (human)
T41 peptide: Ac-VTPSRLPTEPPSS
Method: as §1, §2

peptide 50 = molecular target: T42, peptide 50 (human)
T42 peptide: Ac-PSDQLELVATGVF
Method: as §1, §2

B1: monoclonal antibody hGP 5C4 (antibody, V domains shown)
VH: EVKLQESGGGLVQPGRSLKLSCTASGFTFSDYFMSWVRQAPTRGLEWVASISSGGASAYWRDSVKGRFTISRDNAKSALYLQMDSLRSEDTATYFCARGELDFDYWGQGVMVAVSS
VL: ADPNSTLLSASVGDRVTLNCTASQNVYKNLAWYQQKLGEAPRLLLYSANSQTGIPSRFSGSGSGPDFTLTISSLQPEDVASYFCQQYYSGNTFGAGTKLELKR
notes: Rat hybridoma antibody (Lou/C rats), heavy chain gamma 2a, light chain kappa; also called ab 5C4; anti-GPVI mAb 5C4
For B1, the “LU (Light Units)” value (peptide 26) was 101 LU, the “LU (Light Units)” value (peptide 52) was 148 LU and the “LU (Light Units)” value (peptide 35) was 186 LU. The “LU (Light Units)” value (peptide 72) was 35 LU, the “LU (Light Units)” value (peptide 14) was 1420 LU and the “LU (Light Units)” value (peptide 40) was 139 LU. For the same binder, the “LU (Light Units)” value (peptide 92) was 110 LU, the “LU (Light Units)” value (peptide 112) was 100 LU and the “LU (Light Units)” value (peptide 59) was 155 LU. The “LU (Light Units)” value (peptide 2) was 79 LU, the “LU (Light Units)” value (peptide 71) was 29 LU and the “LU (Light Units)” value (peptide 87) was 93 LU. The “LU (Light Units)” value (peptide 88) was 64 LU, the “LU (Light Units)” value (peptide 121) was 186 LU and the “LU (Light Units)” value (peptide 5) was 26 LU. For the same binder, the “LU (Light Units)” value (peptide 73) was 33 LU, the “LU (Light Units)” value (peptide 111) was 136 LU and the “LU (Light Units)” value (peptide 130) was 255 LU. For the same binder, the “LU (Light Units)” value (peptide 84) was 87 LU, the “LU (Light Units)” value (peptide 68) was 84 LU and the “LU (Light Units)” value (peptide 85) was 14 LU. For the same binder, the “LU (Light Units)” value (peptide 44) was 9 LU, the “LU (Light Units)” value (peptide 115) was 143 LU and the “LU (Light Units)” value (peptide 43) was 64 LU. The “LU (Light Units)” value (peptide 21) was 128 LU, the “LU (Light Units)” value (peptide 129) was 139 LU and the “LU (Light Units)” value (peptide 10) was 1330 LU. For the same binder, the “LU (Light Units)” value (peptide 66) was 82 LU, the “LU (Light Units)” value (peptide 69) was 78 LU and the “LU (Light Units)” value (peptide 28) was 179 LU. The “LU (Light Units)” value (peptide 22) was 76 LU, the “LU (Light Units)” value (peptide 39) was 134 LU and the “LU (Light Units)” value (peptide 103) was 50 LU. For the same binder, the “LU (Light Units)” value (peptide 119) was 287 LU, the “LU (Light Units)” value (peptide 32) was 319 LU and the “LU (Light Units)” value (peptide 23) was 76 LU. The “LU (Light Units)” value (peptide 79) was 119 LU, the “LU (Light Units)” value (peptide 41) was 8 LU and the “LU (Light Units)” value (peptide 51) was 73 LU. For the same binder, the “LU (Light Units)” value (peptide 77) was 97 LU, the “LU (Light Units)” value (peptide 104) was 91 LU and the “LU (Light Units)” value (peptide 50) was 38 LU.
